These results are taken from patent publication US20210388081A1 (Memorial Sloan Kettering, published 2021).

Assay [1] deals with T1, FcRL2, overexpressed on 3T3 cells (UniProt Q96LA5 20-508, limits assumed).
T1 construct: whole, on cells
T1 sequence (looked up): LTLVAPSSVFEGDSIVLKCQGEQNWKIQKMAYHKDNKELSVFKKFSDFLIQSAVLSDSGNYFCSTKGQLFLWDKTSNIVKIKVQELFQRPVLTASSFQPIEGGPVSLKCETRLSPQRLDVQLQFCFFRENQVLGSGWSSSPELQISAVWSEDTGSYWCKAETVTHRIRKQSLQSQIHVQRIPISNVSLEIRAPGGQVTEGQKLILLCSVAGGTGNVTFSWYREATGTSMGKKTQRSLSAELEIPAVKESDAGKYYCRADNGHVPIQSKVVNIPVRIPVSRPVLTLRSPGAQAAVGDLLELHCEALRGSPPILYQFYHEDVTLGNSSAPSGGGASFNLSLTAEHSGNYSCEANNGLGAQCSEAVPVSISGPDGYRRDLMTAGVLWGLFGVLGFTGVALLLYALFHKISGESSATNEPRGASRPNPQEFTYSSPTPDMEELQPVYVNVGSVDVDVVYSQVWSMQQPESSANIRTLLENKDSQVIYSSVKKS
The experiment in a line: phage clone on 3T3-FcRL2 cells.

The next assay deals with SLAMF9 protein (UniProt Q96A28 19-236, limits assumed). The experiment in a line: phage clone on SLAMF9 protein.
Sequence of SLAMF9 protein (Q96A28 19-236 limits assumed): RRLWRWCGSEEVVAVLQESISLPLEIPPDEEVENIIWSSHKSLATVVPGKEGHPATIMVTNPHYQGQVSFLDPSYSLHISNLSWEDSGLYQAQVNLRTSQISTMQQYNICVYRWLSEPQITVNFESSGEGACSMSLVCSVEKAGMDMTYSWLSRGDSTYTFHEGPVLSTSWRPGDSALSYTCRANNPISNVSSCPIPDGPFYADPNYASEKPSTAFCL
The target of assay [2] is T2, FcRL6, overexpressed on 3T3 cells (UniProt Q6DN72 20-434, limits assumed).
T2 construct: whole, on cells
T2 sequence (looked up): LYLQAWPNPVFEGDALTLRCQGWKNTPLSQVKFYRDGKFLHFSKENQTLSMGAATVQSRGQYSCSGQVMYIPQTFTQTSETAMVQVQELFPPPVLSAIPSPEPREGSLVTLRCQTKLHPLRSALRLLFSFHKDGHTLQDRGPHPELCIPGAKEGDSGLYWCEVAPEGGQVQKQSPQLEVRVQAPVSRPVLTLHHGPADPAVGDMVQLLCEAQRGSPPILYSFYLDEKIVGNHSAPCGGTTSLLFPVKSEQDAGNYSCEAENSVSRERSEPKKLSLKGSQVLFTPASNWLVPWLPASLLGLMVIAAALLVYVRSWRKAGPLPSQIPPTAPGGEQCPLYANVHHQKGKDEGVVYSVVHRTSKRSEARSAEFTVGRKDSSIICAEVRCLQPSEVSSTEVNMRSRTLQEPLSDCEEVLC
Nature of the assay: phage clone on 3T3-FcRL6 cells.

For assay [3], the target named is T3, FcRL3, overexpressed on 3T3 cells (UniProt Q96P31 18-734, limits assumed).
T3 construct: whole, on cells
T3 sequence (looked up): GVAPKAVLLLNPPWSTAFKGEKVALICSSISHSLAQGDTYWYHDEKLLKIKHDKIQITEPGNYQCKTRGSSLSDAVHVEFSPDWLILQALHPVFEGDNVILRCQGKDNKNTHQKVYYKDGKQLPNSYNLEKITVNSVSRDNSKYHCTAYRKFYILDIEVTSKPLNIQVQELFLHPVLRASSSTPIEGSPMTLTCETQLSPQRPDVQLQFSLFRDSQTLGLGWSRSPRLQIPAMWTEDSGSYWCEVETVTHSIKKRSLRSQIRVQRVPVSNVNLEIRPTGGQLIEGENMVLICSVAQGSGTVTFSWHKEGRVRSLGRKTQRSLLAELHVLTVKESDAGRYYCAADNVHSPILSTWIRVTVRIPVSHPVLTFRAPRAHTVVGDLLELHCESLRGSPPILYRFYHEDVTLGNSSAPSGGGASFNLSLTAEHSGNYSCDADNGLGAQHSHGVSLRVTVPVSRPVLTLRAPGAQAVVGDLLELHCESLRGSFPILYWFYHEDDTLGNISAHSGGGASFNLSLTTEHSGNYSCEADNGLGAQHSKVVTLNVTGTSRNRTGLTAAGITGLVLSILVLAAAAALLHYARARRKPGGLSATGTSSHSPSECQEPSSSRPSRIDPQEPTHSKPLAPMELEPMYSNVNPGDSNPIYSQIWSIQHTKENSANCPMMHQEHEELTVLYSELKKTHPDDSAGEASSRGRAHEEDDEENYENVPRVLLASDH
The experiment in a line: phage clone on 3T3-FcRL3 cells.

The target of assay [4] is T4, Fc Receptor-like 5 (FcRL5), full length, overexpressed on 3T3 or Raji cells (human, UniProt Q96RD9 16-977).
T4 construct: also called 3T3-FcRL5
T4 sequence: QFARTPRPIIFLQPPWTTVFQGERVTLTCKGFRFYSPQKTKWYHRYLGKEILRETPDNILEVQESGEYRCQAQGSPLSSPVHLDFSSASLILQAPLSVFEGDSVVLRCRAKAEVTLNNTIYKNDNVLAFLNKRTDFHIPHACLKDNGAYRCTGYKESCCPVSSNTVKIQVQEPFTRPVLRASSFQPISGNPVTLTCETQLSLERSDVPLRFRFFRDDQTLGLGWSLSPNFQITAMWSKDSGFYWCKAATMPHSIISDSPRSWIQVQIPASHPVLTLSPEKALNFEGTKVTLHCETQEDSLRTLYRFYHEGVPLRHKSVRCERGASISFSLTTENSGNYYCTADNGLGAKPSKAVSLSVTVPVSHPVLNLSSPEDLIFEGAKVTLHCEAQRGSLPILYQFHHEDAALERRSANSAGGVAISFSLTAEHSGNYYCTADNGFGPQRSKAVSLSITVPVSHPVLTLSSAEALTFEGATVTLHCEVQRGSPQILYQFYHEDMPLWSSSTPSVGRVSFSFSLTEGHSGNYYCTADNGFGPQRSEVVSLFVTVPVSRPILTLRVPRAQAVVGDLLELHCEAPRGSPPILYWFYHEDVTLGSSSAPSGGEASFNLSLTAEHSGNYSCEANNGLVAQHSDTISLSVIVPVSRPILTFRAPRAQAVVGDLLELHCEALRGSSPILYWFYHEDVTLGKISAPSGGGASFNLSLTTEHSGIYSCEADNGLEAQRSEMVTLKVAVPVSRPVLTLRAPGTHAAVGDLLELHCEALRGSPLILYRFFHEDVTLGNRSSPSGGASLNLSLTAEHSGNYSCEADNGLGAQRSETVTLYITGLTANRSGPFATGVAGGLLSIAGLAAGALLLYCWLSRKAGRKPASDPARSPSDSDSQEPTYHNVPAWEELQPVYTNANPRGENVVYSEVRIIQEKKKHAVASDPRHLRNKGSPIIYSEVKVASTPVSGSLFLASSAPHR
The experiment in a line: phage clone screening on cells. In outline:
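scFv phage clones were incubated with live 3T3 cells overexpressing full-length FcRL5, then detected with mouse anti-M13 mAb and PE-anti-mouse Ig by flow cytometry. 3T3 cells expressing FcRL1, 2, 3, 4 or 6 served as negative-control targets.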

B1: ET200-009 (scFv)
scFv: QSVLTQPPSASGTPGQTVTISCSGSNSNIGSNYVYWYQQLPGTAPKLLIYRNNQRPSGVPDRFSGSKSGTSASLAISGLRSEDEADYYCAAWDDSLSAYVFGTGTKVTVLGSRGGGGSGGGGSGGGGSLEMAQVQLVQSGAEVKKPGASVKVSCKASGYTFTSYGISWVRQAPGQGLEWMGWISAYNGNTNYAQKLQGRVTMTTDTSTSTAYMELRSLRSDDTAVYYCARSSGNMVSWKDMWGQGTLVTVSSTSGQAGQHHHHHHGAYPYDVPDYAS
notes: screened as phage clone; entry is VL-linker-VH-His tag-HA tag
B1: the binding result in assay [1] is “no binding”; in the assay with SLAMF9 protein it was “no binding”; in assay [2], “no binding”; in assay [3], “no binding”; in assay [4] it was “binds”.

B2: ET200-005 (scFv)
scFv: QPVLTQPPSVSVVPGKTARITCGGKNIGSKSVHWYQQKPGQAPVVVIHYDSDRPSGIPERFSGSNSGNTATLTISRVEAGDEADYYCQVWDSSSDHPYVFGTGTKVTVLGSRGGGGSGGGGSGGGGSLEMAQVQLVQSGAEVKKPGASVKVSCKASGYTFTNYGISWVRQAPGQGLEWMGWISAYNGNTNYAHKLQGRVTMTTDTSTSTANMELRSLRPDDTAVYYCARSYFGSHDYWGQGTLVTVSSTSGQAGQHHHHHHGAYPYDVPDYAS
notes: as for B1
On to B2, for which the binding result in assay [1] is recorded as “no binding”; with SLAMF9 protein, “no binding”; in assay [2], “no binding”; in assay [3], “no binding”; in assay [4] it was “binds”.

B3: ET200-124 (scFv)
scFv: SYVLTQPPSVSVAPGKTARISCGGNDIGSKSVFWYQQRPGQAPVLVVYDDSDRPSGLPERFSGFNSGNTATLTISRVEAGDEADYYCQVWDSSSDHYVFGTGTKVTVLGSRGGGGSGGGGSGGGGSLEMAQVQLVESGGGLVQPGRSLRLSCAASGFTFDDYAMHWVRQAPGKGLEWVSGISWNSGSIGYADSVKGRFTISRDNAKNSLYLQMNSLRAEDTALYYCAKDITYGSGSYGAFDIWGQGTMVTVSSTSGQAGQHHHHHHGAYPYDVPDYAS
notes: as for B1
Consider B3, for which the binding result in assay [1] is reported as “no binding”; in the assay with SLAMF9 protein it was “no binding”; in assay [2], “no binding”; in assay [3], “no binding”; in assay [4] it was “binds”.

B4: ET200-010 (scFv)
scFv: QSALTQPASVSGSPGQSITISCTGTSSDVGGYNSVSWYQQHPGKAPRLMIYDVSNRPSGVSNRFSGSKSGNTASLTISGLQAEDEADYYCSSYTSSSTPLVFGTGTKVTVLGSRGGGGSGGGGSGGGGSLEMAQVQLVQSGAEVKKPGASVKVSCKASGYTFTSYGISWVRQAPGQGLEWMGWISAYNGNTNYAQKLQGRVTMTTDTSTSTAYMELRSLRSDDTAVYYCARGAVAYHDWGQGTLVTVSSTSGQAGQHHHHHHGAYPYDVPDYAS
notes: as for B1
As for B4, the binding result in assay [1] is “no binding”; with SLAMF9 protein, “no binding”; in assay [2], “no binding”; in assay [3], “no binding”; in assay [4], “binds”.
